This experiment has as its target CDC5L–GFP (UniProt Q99459). In words: affinity purification with mass spectrometry.

Sequence of HSP70 (P11142 whole entry): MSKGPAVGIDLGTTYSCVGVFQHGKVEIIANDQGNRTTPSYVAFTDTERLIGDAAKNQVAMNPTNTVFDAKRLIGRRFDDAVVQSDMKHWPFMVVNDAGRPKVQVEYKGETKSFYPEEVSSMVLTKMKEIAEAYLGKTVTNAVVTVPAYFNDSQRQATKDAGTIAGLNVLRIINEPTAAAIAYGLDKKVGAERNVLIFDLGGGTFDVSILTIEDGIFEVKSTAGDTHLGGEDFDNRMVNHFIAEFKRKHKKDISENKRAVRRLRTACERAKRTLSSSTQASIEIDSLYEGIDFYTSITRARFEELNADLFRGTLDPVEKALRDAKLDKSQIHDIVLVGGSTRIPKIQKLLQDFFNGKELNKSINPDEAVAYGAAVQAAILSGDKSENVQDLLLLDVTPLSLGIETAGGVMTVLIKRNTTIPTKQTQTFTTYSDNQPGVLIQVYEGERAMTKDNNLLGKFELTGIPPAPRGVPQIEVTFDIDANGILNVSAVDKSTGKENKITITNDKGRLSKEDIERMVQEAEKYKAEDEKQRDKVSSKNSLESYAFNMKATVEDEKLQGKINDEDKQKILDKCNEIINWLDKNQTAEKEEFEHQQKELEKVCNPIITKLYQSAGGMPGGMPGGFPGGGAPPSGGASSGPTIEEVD
Sequence of CDC5L–GFP (Q99459 whole entry): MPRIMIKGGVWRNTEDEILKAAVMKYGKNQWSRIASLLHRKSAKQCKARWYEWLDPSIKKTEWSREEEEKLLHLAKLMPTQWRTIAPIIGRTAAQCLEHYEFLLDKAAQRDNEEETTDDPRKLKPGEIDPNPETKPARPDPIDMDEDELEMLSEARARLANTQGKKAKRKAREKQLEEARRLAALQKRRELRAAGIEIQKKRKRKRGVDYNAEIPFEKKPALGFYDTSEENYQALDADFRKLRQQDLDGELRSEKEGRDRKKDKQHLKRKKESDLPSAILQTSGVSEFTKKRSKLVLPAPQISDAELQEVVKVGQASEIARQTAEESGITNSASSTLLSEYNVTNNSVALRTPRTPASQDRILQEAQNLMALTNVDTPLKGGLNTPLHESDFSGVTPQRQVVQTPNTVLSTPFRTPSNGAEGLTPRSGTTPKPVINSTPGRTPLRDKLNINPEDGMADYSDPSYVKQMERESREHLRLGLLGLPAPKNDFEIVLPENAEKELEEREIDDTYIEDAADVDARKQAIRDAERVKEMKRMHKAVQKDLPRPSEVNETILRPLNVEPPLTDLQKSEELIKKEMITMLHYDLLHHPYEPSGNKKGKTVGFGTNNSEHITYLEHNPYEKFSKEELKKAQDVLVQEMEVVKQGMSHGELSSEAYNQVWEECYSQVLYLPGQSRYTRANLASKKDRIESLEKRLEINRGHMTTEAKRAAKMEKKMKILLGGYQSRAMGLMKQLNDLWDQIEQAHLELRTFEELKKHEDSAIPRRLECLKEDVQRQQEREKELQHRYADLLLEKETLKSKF

In the case of “HSP70 (from UniProt P11142 1-646) (natural protein)”, the stoichiometry N (relative to CDC5L) was found to be 0.2 and the stoichiometry with CDC5L as a dimer (CDC5L 2) (per CDC5L dimer) stood at 0.4.

The record behind these values is article PMC3592467.
